Here are results for 1 substance from article doi:10.1101/577536.

The assay addresses fusion protein containing the GS120 linker. Kind of assay: FRET or BRET. (Bioluminescence resonance energy transfer reports proximity on the nanometre scale.)

Turning to V227A MBD2 peptide, the fold shift of the titration midpoint against the WT MBD2 peptide was 30 fold.
